The source of these data is PMC3526295.

In the data set the target is T1, Mre11-W243R (Homo sapiens, UniProt P49959 1-708, W243R).
T1 sequence: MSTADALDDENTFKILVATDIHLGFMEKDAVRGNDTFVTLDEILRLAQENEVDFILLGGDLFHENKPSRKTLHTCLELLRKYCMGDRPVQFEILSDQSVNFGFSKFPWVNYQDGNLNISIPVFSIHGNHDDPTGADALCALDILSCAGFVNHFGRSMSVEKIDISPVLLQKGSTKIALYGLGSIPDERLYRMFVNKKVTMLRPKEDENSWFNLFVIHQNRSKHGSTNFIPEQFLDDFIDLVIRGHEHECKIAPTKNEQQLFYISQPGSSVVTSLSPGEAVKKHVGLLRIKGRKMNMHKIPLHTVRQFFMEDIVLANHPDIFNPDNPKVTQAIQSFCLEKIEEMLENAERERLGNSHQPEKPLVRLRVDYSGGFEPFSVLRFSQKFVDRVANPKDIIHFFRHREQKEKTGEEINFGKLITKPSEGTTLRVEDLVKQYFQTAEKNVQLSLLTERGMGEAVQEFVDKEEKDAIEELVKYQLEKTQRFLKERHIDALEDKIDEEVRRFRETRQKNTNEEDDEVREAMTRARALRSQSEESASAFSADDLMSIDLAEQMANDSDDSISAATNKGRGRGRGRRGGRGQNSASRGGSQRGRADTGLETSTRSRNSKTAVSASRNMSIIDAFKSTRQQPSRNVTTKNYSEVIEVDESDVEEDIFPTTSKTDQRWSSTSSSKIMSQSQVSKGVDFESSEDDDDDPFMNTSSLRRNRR
Briefly: EMSA. Background: A gel shift assay detects complexes by their altered migration in electrophoresis.

B1: ssDNA90 (ssDNA)
DNA: AATTCTCATTTTACTTACCGGACGCTATTAGCAGTGGCAGATTGTACTGAGAGTGCACCATATGCGGTGTGAAATACCGCACAGATGCGT
Regarding B1, the binding result was “binds”.

B2: dsDNA90 (dsDNA)
DNA 1: AATTCTCATTTTACTTACCGGACGCTATTAGCAGTGGCAGATTGTACTGAGAGTGCACCATATGCGGTGTGAAATACCGCACAGATGCGT
DNA 2: ACGCATCTGTGCGGTATTTCACACCGCATATGGTGCACTCTCAGTACAATCTGCCACTGCTAATAGCGTCCGGTAAGTAAAATGAGAATT
For B2, the binding result is “binds”.
